Laboratory results published in patent US20220177587A1, “METHODS AND USES OF VARIANT CD80 FUSION PROTEINS AND RELATED CONSTRUCTS” (Alpine Immune Sciences, Inc., priority 2018, published 2022).

Columns and labels:
human PD-L1 (human) [1] = molecular target: human PD-L1 (human) (UniProt Q9NZQ7)
CD28 (human) [2] = molecular target: CD28 (human) (UniProt P10747)
human CTLA-4 (human) [3] = molecular target: human CTLA-4 (human) (UniProt P16410); test: flow cytometry, CHO cells expressing CTLA4
human PD-L1 (human) [4] = molecular target: human PD-L1 (human) (UniProt Q9NZQ7); test: flow cytometry, MFI on PD-L1 over MFI on CD28
CD28 (human) [5] = molecular target: CD28 (human) (UniProt P10747); test: flow cytometry, Jurkat cells (CD28)
human PD-L1 (human) [6] = molecular target: human PD-L1 (human) (UniProt Q9NZQ7); test: flow cytometry, CHO cells expressing PD-L1
human CTLA-4 (human) [7] = molecular target: human CTLA-4 (human) (UniProt P16410); test: flow cytometry, CHO cells stably expressing CTLA4
human PD-L1 (human) [8] = molecular target: human PD-L1 (human) (UniProt Q9NZQ7); test: flow cytometry, MFI on CHO/PD-L1 over MFI on Jurkat (CD28)
human PD-L1 (human) [9] = molecular target: human PD-L1 (human) (UniProt Q9NZQ7); test: flow cytometry, CHO cells stably expressing PD-L1
CD28 (human) [10] = molecular target: CD28 (human) (UniProt P10747); test: flow cytometry, Jurkat cells (CD28); MFI over CD80 WT IgV-Fc
human PD-L1 (human) [11] = molecular target: human PD-L1 (human) (UniProt Q9NZQ7); test: flow cytometry, CHO/PD-L1 cells; MFI over CD80 WT IgV-Fc
human CTLA-4 (human) [12] = molecular target: human CTLA-4 (human) (UniProt P16410); test: flow cytometry, CHO/CTLA4 cells; MFI over CD80 WT IgV-Fc
human PD-L1 (human) [13] = molecular target: human PD-L1 (human) (UniProt Q9NZQ7); remark: listed apart in the source
CD28 (human) [14] = molecular target: CD28 (human) (UniProt P10747); remark: listed apart in the source

Chain of human CTLA-4 (human) (P16410 36-223): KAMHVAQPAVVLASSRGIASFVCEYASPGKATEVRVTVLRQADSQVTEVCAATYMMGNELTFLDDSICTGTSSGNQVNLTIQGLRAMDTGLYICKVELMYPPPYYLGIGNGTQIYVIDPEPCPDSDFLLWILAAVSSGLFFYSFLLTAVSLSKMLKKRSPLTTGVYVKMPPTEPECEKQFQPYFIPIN
Chain of human PD-L1 (human) (Q9NZQ7 19-290): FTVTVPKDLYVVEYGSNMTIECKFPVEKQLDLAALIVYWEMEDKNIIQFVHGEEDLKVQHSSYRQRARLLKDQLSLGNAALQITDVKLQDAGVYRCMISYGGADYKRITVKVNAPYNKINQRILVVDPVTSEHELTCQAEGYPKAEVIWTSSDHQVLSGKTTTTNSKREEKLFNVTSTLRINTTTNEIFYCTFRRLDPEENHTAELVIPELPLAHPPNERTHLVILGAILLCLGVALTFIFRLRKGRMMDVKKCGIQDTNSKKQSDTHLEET

B1: CD80 E35D/M47V IgV-Fc (Fc fusion)
chain: VIHVTKEVKEVATLSCGHNVSVEELAQTRIYWQKDKKMVLTMMSGDVNIWPEYKNRTIFDITNNLSIVILALRPSDEGTYECVVLKYEKDAFKREHLAEVTLSVKAD
- IL2-luciferase reporter (RLU), fold increase over WT CD80-IgV-Fc at 5.0 nM (human PD-L1 (human) [1]): 3.4 fold
- IL2-luciferase reporter (RLU), fold increase over WT CD80-IgV-Fc at 5.0 nM (CD28 (human) [2]): 3.4 fold

B2: CD80 H18Y/E35D/M47V/V68M/L85M IgV-Fc (Fc fusion)
chain: VIHVTKEVKEVATLSCGYNVSVEELAQTRIYWQKDKKMVLTMMSGDVNIWPEYKNRTIFDITNNLSIMILALRPSDEGTYECVVMKYEKDAFKREHLAEVTLSVKAD
- Fold change to WT CD80 (human CTLA-4 (human) [3]): 10.5 fold
- MFI at 33.3 nM (human CTLA-4 (human) [3]): 18400 MFI
- Ratio of PDL1:CD28 (human PD-L1 (human) [4]): 45
- Fold change to WT CD80 (CD28 (human) [5]): 11.9 fold
- MFI at 33.3 nM (CD28 (human) [5]): 373 MFI
- Fold change to WT CD80 (human PD-L1 (human) [6]): 326 fold
- MFI at 33.3 nM (human PD-L1 (human) [6]): 16800 MFI

B3: CD80 E35D/T41S/D46E/M47I/V68M/K93R/E95V IgV-Fc (Fc fusion)
chain: VIHVTKEVKEVATLSCGHNVSVEELAQTRIYWQKDKKMVLSMMSGEINIWPEYKNRTIFDITNNLSIMILALRPSDEGTYECVVLKYEKDAFRRVHLAEVTLSVKAD
- Fold change to WT CD80 (human CTLA-4 (human) [3]): 10.5 fold
- MFI at 33.3 nM (human CTLA-4 (human) [3]): 18400 MFI
- Ratio of PDL1:CD28 (human PD-L1 (human) [4]): 31.1
- Fold change to WT CD80 (CD28 (human) [5]): 15.2 fold
- MFI at 33.3 nM (CD28 (human) [5]): 476 MFI
- Fold change to WT CD80 (human PD-L1 (human) [6]): 287 fold
- MFI at 33.3 nM (human PD-L1 (human) [6]): 14800 MFI

B4: CD80 H18Y/E35D/V68M/T79M/L85M IgV-Fc (Fc fusion)
chain: VIHVTKEVKEVATLSCGYNVSVEELAQTRIYWQKDKKMVLTMMSGDMNIWPEYKNRTIFDITNNLSIMILALRPSDEGMYECVVMKYEKDAFKREHLAEVTLSVKAD
- Fold change to WT CD80 (human CTLA-4 (human) [3]): 9.3 fold
- MFI at 33.3 nM (human CTLA-4 (human) [3]): 16300 MFI
- Ratio of PDL1:CD28 (human PD-L1 (human) [4]): 14.3
- Fold change to WT CD80 (CD28 (human) [5]): 33.2 fold
- MFI at 33.3 nM (CD28 (human) [5]): 1040 MFI
- Fold change to WT CD80 (human PD-L1 (human) [6]): 290 fold
- MFI at 33.3 nM (human PD-L1 (human) [6]): 14900 MFI

B5: CD80 T13R/Q33R/E35D/M47L/V68M/L85M IgV-Fc (Fc fusion)
chain: VIHVTKEVKEVARLSCGHNVSVEELAQTRIYWRKDKKMVLTMMSGDLNIWPEYKNRTIFDITNNLSIMILALRPSDEGTYECVVMKYEKDAFKREHLAEVTLSVKAD
- Fold change to WT CD80 (human CTLA-4 (human) [3]): 7.7 fold
- MFI at 33.3 nM (human CTLA-4 (human) [3]): 13400 MFI
- Ratio of PDL1:CD28 (human PD-L1 (human) [4]): 169
- Fold change to WT CD80 (CD28 (human) [5]): 3.6 fold
- MFI at 33.3 nM (CD28 (human) [5]): 112 MFI
- Fold change to WT CD80 (human PD-L1 (human) [6]): 368 fold
- MFI at 33.3 nM (human PD-L1 (human) [6]): 18900 MFI

B6: CD80 E35D/L97R IgV-Fc (Fc fusion)
chain: VIHVTKEVKEVATLSCGHNVSVEELAQTRIYWQKDKKMVLTMMSGDMNIWPEYKNRTIFDITNNLSIVILALRPSDEGTYECVVLKYEKDAFKREHRAEVTLSVKAD
- IL2-luciferase reporter (RLU), fold increase over WT CD80-IgV-Fc at 5.0 nM (human PD-L1 (human) [1]): 2.3 fold
- IL2-luciferase reporter (RLU), fold increase over WT CD80-IgV-Fc at 5.0 nM (CD28 (human) [2]): 2.3 fold

B7: CD80 E35D/D46E/M47I IgV-Fc (Fc fusion)
chain: VIHVTKEVKEVATLSCGHNVSVEELAQTRIYWQKDKKMVLTMMSGEINIWPEYKNRTIFDITNNLSIVILALRPSDEGTYECVVLKYEKDAFKREHLAEVTLSVKAD
- IL2-luciferase reporter (RLU), fold increase over WT CD80-IgV-Fc at 5.0 nM (human PD-L1 (human) [1]): 4.8 fold
- IL2-luciferase reporter (RLU), fold increase over WT CD80-IgV-Fc at 5.0 nM (CD28 (human) [2]): 4.8 fold

B8: CD80 T13R/Q33R/E35D/M38I/M47L/V68M/E95V/L97Q IgV-Fc (Fc fusion)
chain: VIHVTKEVKEVARLSCGHNVSVEELAQTRIYWRKDKKIVLTMMSGDLNIWPEYKNRTIFDITNNLSIMILALRPSDEGTYECVVLKYEKDAFKRVHQAEVTLSVKAD
- Fold change to WT CD80 (human CTLA-4 (human) [3]): 11.8 fold
- MFI at 33.3 nM (human CTLA-4 (human) [3]): 20700 MFI
- Ratio of PDL1:CD28 (human PD-L1 (human) [4]): 17.2
- Fold change to WT CD80 (CD28 (human) [5]): 35.4 fold
- MFI at 33.3 nM (CD28 (human) [5]): 1110 MFI
- Fold change to WT CD80 (human PD-L1 (human) [6]): 372 fold
- MFI at 33.3 nM (human PD-L1 (human) [6]): 19200 MFI

B9: CD80 IgV-Fc S15T/H18Y/E35D/M47V/T62A/N64S/A71G/L85Q/D90N (Fc fusion)
chain: VIHVTKEVKEVATLTCGYNVSVEELAQTRIYWQKDKKMVLTMMSGDVNIWPEYKNRTIFDIANSLSIVILGLRPSDEGTYECVVQKYEKNAFKREHLAEVTLSVKAD
- Fold change to WT CD80 (human CTLA-4 (human) [7]): 10.7 fold
- MFI at 33.3 nM (human CTLA-4 (human) [7]): 11000 MFI
- Fold change to WT (CD28 (human) [5]): 25.9 fold
- MFI at 33.3 nM (CD28 (human) [5]): 1070 MFI
- Ratio of PDL1:CD28 (human PD-L1 (human) [8]): 13
- Fold change to WT (human PD-L1 (human) [9]): 166 fold
- MFI at 33.3 nM (human PD-L1 (human) [9]): 13900 MFI

B10: CD80 E35D/D46V/M47L/V68M/L85Q/E88D IgV-Fc, GS(G4S)5 linker (Fc fusion)
chain: VIHVTKEVKEVATLSCGHNVSVEELAQTRIYWQKDKKMVLTMMSGVLNIWPEYKNRTIFDITNNLSIMILALRPSDEGTYECVVQKYDKDAFKREHLAEVTLSVKADGSGGGGSGGGGSGGGGSGGGGSGGGGS
- Fold change to WT CD80 (CD28 (human) [10]): 2.6 fold
- Fold change to WT CD80 (human PD-L1 (human) [11]): 481 fold
- MFI at 33.3 nM (human CTLA-4 (human) [7]): 26600 MFI
- MFI at 33.3 nM (CD28 (human) [5]): 143 MFI
- Fold change to WT CD80 (human CTLA-4 (human) [12]): 22.2 fold
- MFI at 33.3 nM (human PD-L1 (human) [9]): 22400 MFI
- IL2-luciferase reporter, fold increase in RLU over WT CD80-IgV-Fc at 5.0 nM (human PD-L1 (human) [13]): 5.26 fold
- IL2-luciferase reporter, fold increase in RLU over WT CD80-IgV-Fc at 5.0 nM (CD28 (human) [14]): 5.26 fold
